Test results published in PMC6152768, “Dynamic Allostery Modulates Catalytic Activity by Modifying the Hydrogen Bonding Network in the Catalytic Site of Human Pin1” (Molecules : A Journal of Synthetic Chemistry and Natural …, 2017).
Square brackets hold non-standard residues; d marks the D form. Ends that are not written are not given here. pT = C[C@@H](OP(=O)(O)O)[C@H](N)C(=O)O

Target: wild-type human Pin1 PPIase domain (human, UniProt Q13526 1-163)
Experiment: ITC; 1.5 uL injections of 10 mM Cdc25C phosphor-peptide into 200 uL of 0.2 mM wild-type or S138A Pin1 PPIase domain in the cell; Microcal Auto iTC200; single-site fit with the stoichiometry fixed to n = 1; in triplicate; buffer and temperature not stated
Settings: both partners purified

Chain of wild-type human Pin1 PPIase domain (Q13526 whole entry, the tested form may be a part): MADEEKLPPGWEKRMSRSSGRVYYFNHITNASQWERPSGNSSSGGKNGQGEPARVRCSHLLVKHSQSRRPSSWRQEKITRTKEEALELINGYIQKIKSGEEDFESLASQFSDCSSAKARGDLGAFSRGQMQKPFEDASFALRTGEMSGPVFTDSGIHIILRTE

Kd: 1810 ± 290 µM
stoichiometry N: 1 ± 0.001
B1: phosphor-peptide Cdc25C (EQPLpTPVTDL) (peptide)
peptide: EQPL[pT]PVTDL
notes: Phosphopeptide named Cdc25C; also called phosphorylated peptide Cdc25C; Cdc25C phosphor-peptide; source: bought: Funakoshi (Tokyo, Japan), used without further purification
